The values that follow come from PMC7728782, “Heat induces end to end repetitive association in P. furiosusL-asparaginase which enables its thermophilic property” (Scientific Reports, 2020).

The target of data set [1] is conjoined PfA (cPfA): N-PfA and C-PfA halves of P. furiosus L-asparaginase without the 19-residue linker (Pyrococcus furiosus) (UniProt Q8TZE8). Description: SAXS; protein at 6 mg/mL in a thermostated quartz capillary, 70 °C; association state from I0 of the Guinier analysis against lysozyme.
Data set [2] shares this target. Description: SAXS; protein at 6 mg/mL in a thermostated quartz capillary, 50 °C; association state from I0 of the Guinier analysis against lysozyme.
For data set [3] the target is unchanged. Kind of data set: SAXS; protein at 6 mg/mL in a thermostated quartz capillary, 25 °C; association state from I0 of the Guinier analysis against lysozyme.
Data set [4] has the same target. Description: SAXS; protein at 6 mg/mL in a thermostated quartz capillary, 30 °C; association state from I0 of the Guinier analysis against lysozyme.
The target is the same in data set [5]. Kind of data set: SAXS; protein at 6 mg/mL in a thermostated quartz capillary, 60 °C; association state from I0 of the Guinier analysis against lysozyme.
Data set [6] shares this target. Kind of data set: SAXS; protein at 6 mg/mL in a thermostated quartz capillary, 80 °C; association state from I0 of the Guinier analysis against lysozyme.
Data set [7] has the same target. Description: SAXS; protein at 6 mg/mL in a thermostated quartz capillary, 40 °C; association state from I0 of the Guinier analysis against lysozyme.
In data set [8] the target is defunct cPfA (dcPfA): cPfA truncated beyond D178 of the N-terminal domain (Pyrococcus furiosus) (UniProt Q8TZE8).
Data set [9] concerns the molecule itself. Kind of data set: SAXS; protein at 6 mg/mL in a thermostated quartz capillary, 25 °C; association state from I0 of the Guinier analysis against lysozyme.
Data set [10] deals with the molecule itself. Kind of data set: SAXS; protein at 6 mg/mL in a thermostated quartz capillary, 50 °C; association state from I0 of the Guinier analysis against lysozyme.
Data set [11] deals with the molecule itself. Description: SAXS; protein at 6 mg/mL in a thermostated quartz capillary, 30 °C; association state from I0 of the Guinier analysis against lysozyme.
Data set [12] deals with the molecule itself. Description: SAXS; protein at 6 mg/mL in a thermostated quartz capillary, 40 °C; association state from I0 of the Guinier analysis against lysozyme.
Data set [13] concerns the molecule itself. Description: SAXS; protein at 6 mg/mL in a thermostated quartz capillary, 80 °C; association state from I0 of the Guinier analysis against lysozyme.
Data set [14] deals with the molecule itself. Description: crystal structure; cPfA crystallised at 37 °C, 2.36 Å, PDB 5CBP; contacts between symmetry mates.

For “conjoined PfA (cPfA): N-PfA and C-PfA halves of P. furiosus L-asparaginase without the 19-residue linker (from UniProt Q8TZE8 1-182; Q8TZE8 1-182) (complex)”, the stoichiometry N was determined as 8 in data set [1]; 2 in [2]; 2 in data set [3]; 2 in data set [4]; 4 in data set [5]; 12 in [6]. In [7], this molecule gave a stoichiometry N of 2.

For the molecule “defunct cPfA (dcPfA): cPfA truncated beyond D178 of the N-terminal domain (from UniProt Q8TZE8 1-178; Q8TZE8 1-178) (complex)”, in data set [8], the loss in specific activity of dcPfA relative to cPfA, 45 °C was found to be 38%; the loss in specific activity of dcPfA relative to cPfA, 60 °C came to 60%; the loss in specific activity of dcPfA relative to cPfA, 70 °C worked out at 80%; the loss in specific activity of dcPfA relative to cPfA, 80 °C was 90%.

For the molecule LVVN [L-V-V-N peptide (terminal short beta-strand of the N-terminal domain of PfA, Leu179-Asn182)], in data set [8], the specific activity of dcPfA pre-incubated with LVVN peptide (different molar ratios, highest effective 500 µM) against dcPfA alone, 37 °C was 1.66 fold; the specific activity of dcPfA pre-incubated with LVVN peptide (different molar ratios, highest effective 500 µM) against dcPfA alone, 45 °C was 1.85 fold; the specific activity of dcPfA pre-incubated with LVVN peptide (different molar ratios, highest effective 500 µM) against dcPfA alone, 60 °C is 2.36 fold.

B1: L-asparaginase from Pyrococcus furiosus, full-length wild type (PfA) (enzyme, UniProt Q8TZE8 1-326, looked up)
chain: MKILLIGMGGTIASVKGENGYEASLSVKEVLDIAGIKDCEDCDFLDLKNVDSTLIQPEDWVDLAETLYKNVKKYDGIIVTHGTDTLAYTSSMISFMLRNPPIPIVFTGSMIPATEENSDAPLNLQTAIKFATSGIRGVYVAFNGKVMLGVRTSKVRTMSRDAFESINYPIIAELRGEDLVVNFIPKFNNGEVTLDLRHDPKVLVIKLIPGLSGDIFRAAVELGYRGIVIEGYGAGGIPYRGSDLLQTIEELSKEIPIVMTTQAMYDGVDLTRYKVGRLALRAGVIPAGDMTKEATVTKLMWILGHTNNVEEIKVLMRKNLVGELRD
notes: L-asparaginase of Pyrococcus furiosus, full length, with N-terminal domain, 19-residue linker and C-terminal domain; One protomer; the SAXS rows give the size of the oligomer it forms
B1: the “stoichiometry N” value in data set [9] worked out at 2; in data set [10], 2; in data set [11], 2; in data set [12], 2; in data set [13], 4.

B2: N-PfA, N-terminal domain chain of conjoined PfA (domain or fragment, Pyrococcus furiosus, UniProt Q8TZE8 1-182, looked up)
chain: MKILLIGMGGTIASVKGENGYEASLSVKEVLDIAGIKDCEDCDFLDLKNVDSTLIQPEDWVDLAETLYKNVKKYDGIIVTHGTDTLAYTSSMISFMLRNPPIPIVFTGSMIPATEENSDAPLNLQTAIKFATSGIRGVYVAFNGKVMLGVRTSKVRTMSRDAFESINYPIIAELRGEDLVVN
notes: N-PfA, the N-terminal half of P. furiosus L-asparaginase; ends at residue 182
Consider B2, for which the binding result in [14] is given as “binds”.

Broadly, the stoichiometry N is the number of molecules, sites or subunits per partner or assembly.
